Assay results from article PMC3574120.

Biological target: FrpB F3-3 variant (Neisseria meningitidis)
Test: crystal structure; FrpB F3-3, space group P212121, three copies in the asymmetric unit about a non-crystallographic 3-fold axis, 2.40 Å; C8E5 detergent; crystals from the monomeric SEC peak

Substance: FrpB F3-3 variant (natural protein)
- stoichiometry N: 3
